# Reference: the DeepSol protein solubility set
# Experiment: soluble on expression in E. coli; label from the status in PepcDB or PDB records
row,Sequence,soluble on expression in E. coli
1,MGSDKIHHHHHHMSRHQNIPALSDVSSTNFSNIRLIATDMDGTLTRRGKFTTPLLQALEDLAAVDIKVLIVTGRSAGWVSGLSSLMPVAGAIAENGGLYFPPGNHKPVVLTPVSDLAKHRQHLATTFENLQTKFPQIQESADNRFRVTDWTFDVADLNQDELQTLDSLCQQMGWGFTYSNVQCHIKPQGQDKAVGLLQVLREYLPQYSPEQIVTVGDSPNDESLFERRYFPVSVGVANVLEYMNQLKYHPAYITNAAEGEGFCELSSYILKSLHIPS,not soluble
2,MSLNKVLVVEDEQLLAQNLQDYLSAQGLEVRIAHDGAEGIGLAETFAPDVLVFDYRLPDMEGFEVLDAVRQNRTCHFVLITGHPTAEVCERARQLGVSHILFKPFPLAELARAVCDLLGIQREAKPGASPSEGFVERRQSRTESFPLQLYDGSWVLADRRRNRSEAMAPDDDQMLTGEEGHHHHHH,not soluble
3,MSLSHTLKSKTLQELDIEEIKETNPLLKLVQGQRIVQVPELVLESGVVINNFPIAYKTWGTLNEAGDNVLVICHALTGSADVADWWGPLLGNDLAFDPSRFFIICLNSMGSPYGSFSPLTINEETGVRYGPEFPLCTVRDDVRAHRIVLDSLGVKSIACVIGGSMGGMLSLEWAAMYGKEYVKNMVALATSARHSAWCISWSEAQRQSIYSDPNYLDGYYPVEEQPVAGLSAARMSALLTYRTRNSFENKFSRRSPSIAQQQKAQREETRKPSTVSEHSLQIHNDGYKTKASTAIAGISGQKGQSVVSTASSSDSLNSSTSMTSVSSVTGEVKDIKPAQTYFSAQSYLRYQGTKFINRFDANCYIAITRKLDTHDLARDRVDDITEVLSTIQQPSLIIGIQSDGLFTYSEQEFLAEHIPKSQLEKIESPEGHDAFLLEFKLINKLIVQFLKTNCKAITDAAPRAWGGDVGNDETKTSVFGEAEEVTNWEGHHHHHH,soluble
4,MGSDKIHHHHHHMMKIYKKNIDHYIMLSFEINEMNIPFTGQIVVKEDDEVTREVILGRAKKIHEWLVLVDHIFSPFRTNSELTLYNHRKIEMTGTNLLFQEVFALSIWAKEMTQGLFSANFVGKYNPTGAVKGWAIEKAERIQLEPLLSDPNFVAVNLNGGGDMQFSSSDKHNWQWEIGIVNPFDNKKVISCFRMKNGAIATSGTSQRGEHLFNSSTGRAIPEKNFNVISSSVIGSELTYSDIWATAIATTTINDHSWLKRLSGSGLRISYNKKSERWLNHEIIDQKELIYA,not soluble
5,KETAAAKFERQHMDSGGGGSGHMENGYTYEDYKNTAEWLLSHTKHRPQVAIICGSGLGGLTDKLTQAQIFDYGEIPNFPRSTVPGHAGRLVFGFLNGRACVMMQGRFHMYEGYPLWKVTFPVRVFHLLGVDTLVVTNAAGGLNPKFEVGDIMLIRDHINLPGFSGQNPLRGPNDERFGDRFPAMSDAYDRTMRQRALSTWKQMGEQRELQEGTYVMVAGPSFQTVAECRVLQKLGADAVGMSTVPEVIVARHCGLRVFGFSLITDKVIMDYESLEKANHEEVLAAGKQAAQKLEQFVSILMASIPLPDKAS,soluble
6,GAHVSRVEKLPKDYQIVYKEIQKYLFKVGPVELNEGIGLLSEILGFFEEGAAAGKGVLDVTGTDVAAFCDALIGDSKTYADLYQESIQQHVDKAMKNMKD,soluble
7,MSLGPVENHSLPRTAAFFDLDKTVIAKSSTLTFSKSFYQGGLINRRAVLRTAYAQFVFLAGGADHDQMERMREYLSALCRGWNVRQVKEIVAETLHDLIDPIIYDEAASLIEEHHTAGRDVVIVSTSGAEVVEPIGELLGADRVVATRMIVGDDGCFTGEVEYYAYGPTKAEAIKELAASEGYDLARCYAYSDSATDLPMLESVGHPHAVNPDRALRREAIARQWPILDFHRPVRLKQRLPALSVPPREGHHHHHH,soluble
8,MGSDKIHHHHHHMKQDTIHINGLSIGYHSKSSTKLVAKGIHSTIYSGELTCLLGANGVGKSTLLRTLSAFQPKLDGEILVLGKDIDTYSDKELSTTIGVVLTDKCEIRNMLVRELVGMGRSPYTGFWGKLSKDDKRIVEESIALVRIEELASRMVHTLSDGERQKVMIAKALAQETPVIYLDEPTAFLDFPSKVEIMQLLHHLTRKTNKTIFMSTHDLELALQISDKIWLMDKANGISTGTPEDLALSGHLSNFFARKGIVFDKDTGLFRIDNQFSRQIRLVGHGQKYAMVRKGLQRNGILANREVESNIWIETGDLKTTHFIIHETSGGTYITQTIEELLAYFDTEKS,not soluble
9,MIQNDYSIYQYHVEFEPTVDSKATRENMLRQPSVTVEIGKHFVFDGMILYLKEEWDQNQMIEVQHPNDNSLICIRFKKTNRFLVDDPQTINIFNTIIRRSFDAMKLTQIGRNYFDWDNSRALRKELRSCQNNRQRVQEKMNEVYGGSTIITRYNNKLHRFTRLDNEITPLSKFQKDGEQIILKEYFKNQYDIDITDDEQFIIISEGKPKQPGEPPQVNYIVPELCFPTGLTDEMRKDFKMMKEIAKHTRMSPQQRLDETRKLITKLSQNQTMMECFQYWGISLGQDLANVQARVLKSEPLQGKRQYEGKQAEWARGVKECGIYRGSNMTNWIVIGPGSGNSGLLAQKFIAEARNLGRTLQVQLGEPMCVKINGISPNDYLEGLKAAIKSVDGEEIHMLVVMLADDNKTRYDSLKKYLCVECPIPNQCVNLRTLAGKSKDGGENKNLGSIVLKIVLQMICKTGGALWKVNIPLKSTMIVGYDLYHDSTLKGKTVGACVSTTSNDFTQFYSQTRPHENPTQLGNNLTHFVRKSLKQYYDNNDKTLPSRLILYRDGAGDGQIPYIKNTEVKLVRDACDAVTDKAAELSNKVQEKIKLAFIIVTKRVNMRILKQGSSSKSAINPQPGTVVDTTVTRPERMDFYLVPQFVNQGTVTPVSYNIIHDDTGLGPDKHQQLAFKLCHLYYNWQGTVRVPAPCQYAHKLAFLTAQSLHDDANGYLRDKLFFL,not soluble
10,MSDVEKKSETQEAAPKKKPYNLREKKEKKAAYRSLIRAELADELYDKILNIVVVQKKYKDPNYSAKDLAKELKTNTRYLSAVVNSRFGMNYSCLLNEYRIKDALHLLVDKRYMDKNVEEISAMVGFANRQSFYAAFYKNVGETPNGYRKRNQEKK,not soluble
11,MPERIATVGWSNHEVPLALGVTPVGFEKVTWGDDDNNGILPWVEETLSKLGSDEPVLFDATDSIPFEEIANTAPDVILASYSGITQEDYDQLSQIAPVVAYPEIAWGTSLDEMIEMNSKAIGLEQEGKDLIADLDAEVASAIDANPELEHHHHHH,not soluble
12,MACCYNSPRRLEKSFVLDGVAVSTMAQAYSIMRPKLWSAIPPYNPQLDHHSRRYFRSRVVPPILRKTDQDHGGTGRDGWIVDYFHIFGQGQRYLNRRNWAGAGHSLQQVSGHDYYNSNPKAITTGLNGRFGYRRNTPALRQHTSVFGEVTPFPISEDIASQGLTCVFKTDV,not soluble
13,MGHHHHHHSHMEAPPVTMMPVTGGTINMMEYLLQGSVLDHSLESLIHRLRGLCDNMEPETFLDHEMVFLLKGQQASPFVLRARRSMDRAGAPWHLRYLGQPEMGDKNRHALVRNCVDIATSENLTDFLMEMGFRMDHEFVAKGHLFRKGIMKIMVYKIFRILVPGNTDSTEALSLSYLVELSVVAPAGQDMVSDDMKNFAEQLKPLVHLEKIDPKRLM,soluble
14,MQFHAVYQNNDTKANLDFALNISTINFATLQELQNSFDLQGSDLTAGLFYKYSVNKLTSGTNDLTTIAKTALGENIIQKQVSLTQSIIKPRLEAAKTQYKQDIIAPFAKERQAALAQHL,not soluble
15,MPRVKAAQAGRQSSAKRHLAEQFAVGEIITDMAKKEWKVGLPIGQGGFGCIYLADMNSSESVGSDAPCVVKVEPSDNGPLFTELKFYQRAAKPEQIQKWIRTRKLKYLGVPKYWGSGLHDKNGKSYRFMIMDRFGSDLQKIYEANAKRFSRKTVLQLSLRILDILEYIHEHEYVHGDIKASNLLLNYKNPDQVYLVDYGLAYRYCPEGVHKEYKEDPKRCHDGTIEFTSIDAHNGVAPSRRGDLEILGYCMIQWLTGHLPWEDNLKDPKYVRDSKIRYRENIASLMDKCFPEKNKPGEIAKYMETVKLLDYTEKPLYENLRDILLQGLKAIGSKDDGKLDLSVVENGGLKAKTITKKRKKEIEESKEPGVEDTEWSNTQTEEAIQTRSRTRKRVQK,soluble
16,GPLHMVKVALAGCPNVGKTSLFNALTGTKQYVANWPGVTVEKKEGVFTYKGYTINLIDLPGTYSLGYSSIDEKIARDYLLKGDADLVILVADSVNPEQSLYLLLEILEMEKKVILAMTAIDEAKKTGMKIDRYELQKHLGIPVVFTSSVTGEGLEELKEKIVEYAQKNTILHRMILDYGEKVESEIKKVENFLRDKKLRINPRYFALKYLSGDPEFYSEGVKLGLPELSEEERIGYRLLIAKRKREYVENVVKEAFAD,soluble
17,MFPERLRALRRGQKMTLAQLAAALNQMPTADKTTRQNTAAQIGNWERDLRTPSYLEVRKLAEFFNVTTDYLSGKSDQEEYDLGRIFLSGKPLTFNQEQLSSEDRYELFQLMDGYLHGRQHRVSTDATGQEELDLHFDD,not soluble
18,MLLTNHAKERIAKRLAKKRKIYKIYSTLFSFLKNSIRIEVEDTILFTDGNKTLVATKLDGELLDLGDIVKRVKDIEESYECVFWDKKIAKITKPIKFLQEIPPGKYYFYINKEKKVLYIGTHEPLLALTFRPAKRWERALFYFSLEHHHHHH,not soluble
19,MAAGKRDYYEVLGVSRSATAQDIKRAFRKLAMQYHPDRHKGEGETVQKQNEEKFKEVNEAYEVLSDTEKRGMYDRFGHEGLNASGFHETGFNPFDIFNSVFGEGFSFDMDGGSPFDFIFSRGKKSRQNRVVLPYDLEIAVGVDISFFEMTNGCTRTIEYTKRVTCSACDGFGAEGGETGMVSCNSCEGNGFILKNQRSIFGTVQSQMLCQSCGGQGKQAKHKCKTCKGSKYKKVPTTKEIQIPAGIYHGDALVDDHGGNEFGGHVGKLVVHVGVLPSKIFKRVDHNVVANVLVDPMIAITGGKIELPTLEGIKEFNLRAGTKSGEQIVIPGGGIKFTKNFRKKAGDLIIIISYARPSEYSAPELRKLKEFIKPNQEVKQYLEHHHHHH,soluble
20,MLPSQHKLSNSEQFRATIRKGKRAGRSTVVLHFYAEATAGNLATAGGPRFGLVVSKAVGNAVTRHRVSRQLRHVVIAMKDQFPASSHVVVRALPPAATASSEELRADVQAALDKLNRKR,not soluble
21,MGSSHHHHHHGKTIFVIVPTNEEQVAFLEALAKQDELNFDWQNPPTEPGQPVVILIPSDMVEWFLEMLKAKGIPFTVYVEEGGSENLYFQGGGGGGDRMRQGWLRSSAALLERVHGHLKDQDRIFTNLYNDFGTGIDAAERRGDWYRTKDILLKGHDWVINEIKASGLRGRGGAGFPSGLKWSFMPKKKQDDRPSYIVVNCDESEPGTCKDREIMRHEPHKVVEGALLAGFAMRARYGYIYIRGEFYNEWRSVEKAIHEAYEKGYLGKNACGSGWDFDLYTYRGAGAYICGEETAMIASIEGGQGKPRLKPPFPANVGLYGCPTTVTNCETVAVSPTIIRRGPQWFAQFGRKGNAGTKLFCISGHVNRPCTVEEEMSMPLRELLERHAGGVRGGWDNLLCVIPGGSSCPLIPKHICDDILMDYDALKEAQTGLGTAAVIVMDKSTDVINAIERLSQFYMHESCGQCTPCREGSPWLDKMMKRFVNGNAKKEEIYTLWDVSKQMEGRSICALGTAAAWPVQGLIRHFKPLMEERIERFWEANPHWGQPGSPWRRWKTHRYYTMQKGDRLNWDGKIVRNWN,not soluble
